Data: patent US20240327530A1 (ICHNOS SCIENCES, published 2024)
One block for each binder: values may come before it.

Key:
[1] = target: T1, Recombinant mouse IL-1RAP Fc fusion protein (Sino Biologicals, catalog no. 52657-M02H) (mouse, UniProt Q61730 21-350); experiment: SPR, mouse IL-1RAP-Fc captured, Fab as analyte
T1 construct: Bought; not shown: Fc part of the bought fusion protein
T1 sequence: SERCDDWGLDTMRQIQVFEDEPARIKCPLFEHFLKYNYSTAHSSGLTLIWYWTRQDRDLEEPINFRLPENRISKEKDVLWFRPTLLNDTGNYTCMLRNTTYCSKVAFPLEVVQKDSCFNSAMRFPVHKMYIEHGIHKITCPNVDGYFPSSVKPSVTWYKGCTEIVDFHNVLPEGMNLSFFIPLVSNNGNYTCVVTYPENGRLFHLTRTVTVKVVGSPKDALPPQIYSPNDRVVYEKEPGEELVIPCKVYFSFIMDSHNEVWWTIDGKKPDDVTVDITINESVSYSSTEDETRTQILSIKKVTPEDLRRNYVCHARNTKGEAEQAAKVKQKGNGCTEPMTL
Protocol: (§1) Surface plasmon resonance (SPR) was used to measure the binding affinities of the Fab fragments for human, cynomolgus monkey and/or mouse IL-1RAP. Affinities were measured on a BIACORE™ T200 instrument (BIACORE™, GE […]®) at 25° C. and analyzed with the BIACORE™ T200 Evaluation Software (v3.1). Measurements were performed on Series S CM5 sensor chips (BIACORE™ T200, BIACORE™, GE […]®, catalog no. BR100530) coupled with anti-human IgG Fc (BIACORE™, GE […]®, catalog no. BR100839) using a commercial amine coupling kit (BIACORE™, GE […]®, catalog no. BR100050) or on Series S BiotinCAPture chips (BIACORE™, GE […]®, catalog no. 28920234). SPR measurements were performed with commercially available recombinant human IL-1RAP Fc fusion protein (Acrobiosystems, catalog no. ILP-H5256) and recombinant mouse IL-1RAP Fc fusion protein (Sino Biologicals, catalog no. 52657-M02H) or with biotinylated recombinant cynomolgus monkey IL-1RAP-avi-his protein produced in-house (SEQ ID NO. 2).
(§2) The affinities to human, cynomolgus monkey and mouse IL-1RAP were assessed by immobilizing IL-1RAP and using Fab fragments as analyte. Around 100 RU of human or mouse IL-1RAP Fc fusion protein were captured on fc2 of a Series S CM5 sensor chip coupled with anti-human IgG Fc and around 150 RU of biotinylated cynomolgus monkey IL-1RAP protein were captured on fc2 of a Series S BiotinCAPture chip. Fab fragments were injected in single cycle kinetic at different concentrations ranging from 7.8 to 500 nM, in HBS-EP+ buffer (BIACORE™, GE […]®, catalog no. BR100669) at a flow rate of 30 μl/min for 3 min on fc1 and fc2 (fc1 being used as reference). Dissociation was monitored for 5 min. After each cycle, the surface was regenerated with 60 μl of regeneration solution provided with anti-human IgG Fc capture kit (BIACORE™, GE […]®, catalog no. BR100839) or BiotinCAPture kit (BIACORE™, GE […]®, catalog no. 28920234) respectively. Experimental data were processed using the 1:1 Langmuir kinetic fitting model. Measurements included zero-concentration samples for referencing. Chi², U- and residual values were used to evaluate the quality of a fit between the experimental data and individual binding models.

[2] = target: T2, Recombinant cynomolgus monkey IL-1RAP-ECD(S21-E359)-avi-his protein (cynomolgus monkey, UniProt P59822 21-359 (rhesus entry)); experiment: SPR, biotinylated cyno IL-1RAP-avi-his captured, Fab as analyte, 1:1 fit
T2 construct: also called cyno IL-1RAP-ECD-Avi-His; recombinant cynomolgus monkey IL-1RAP-avi-his protein
T2 sequence: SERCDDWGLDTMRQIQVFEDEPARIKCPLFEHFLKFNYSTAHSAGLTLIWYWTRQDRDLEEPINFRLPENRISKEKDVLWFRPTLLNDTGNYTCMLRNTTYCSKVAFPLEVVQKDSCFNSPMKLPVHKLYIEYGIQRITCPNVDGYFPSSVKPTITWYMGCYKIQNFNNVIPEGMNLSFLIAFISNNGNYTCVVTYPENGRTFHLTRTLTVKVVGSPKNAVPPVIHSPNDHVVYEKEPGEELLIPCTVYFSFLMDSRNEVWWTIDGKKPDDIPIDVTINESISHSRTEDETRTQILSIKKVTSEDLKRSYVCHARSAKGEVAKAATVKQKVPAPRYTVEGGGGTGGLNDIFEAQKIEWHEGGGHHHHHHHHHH
Protocol: as §1, §2

[3] = target: T3, Recombinant human IL-1RAP Fc fusion protein (Acrobiosystems, catalog no. ILP-H5256) (human, UniProt Q9NPH3 21-359, limits assumed); experiment: SPR, human IL-1RAP-Fc captured, Fab as analyte, 1:1 fit
T3 construct: Bought; not shown: Fc part of the bought fusion protein
T3 sequence: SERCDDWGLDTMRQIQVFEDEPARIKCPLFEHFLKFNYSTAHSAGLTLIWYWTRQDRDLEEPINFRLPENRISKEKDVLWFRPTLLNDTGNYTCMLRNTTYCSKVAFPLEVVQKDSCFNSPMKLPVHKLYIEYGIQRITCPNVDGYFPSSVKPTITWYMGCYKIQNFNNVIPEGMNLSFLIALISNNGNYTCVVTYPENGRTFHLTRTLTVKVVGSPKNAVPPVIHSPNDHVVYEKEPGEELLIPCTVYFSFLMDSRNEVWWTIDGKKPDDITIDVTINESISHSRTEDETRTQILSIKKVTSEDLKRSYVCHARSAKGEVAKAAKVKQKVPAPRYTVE
Protocol: as §1, §2

[4] = target: T3, Recombinant human IL-1RAP Fc fusion …; experiment: SPR, human IL-1RAP-Fc captured, Fab as analyte (0.08 to 50 nM)
Protocol: BR100669) at a flow rate of 30 μl/min for 3 min on fc1 and fc2 (fc1 being used as reference). Dissociation was monitored for 5 min. After each cycle, the surface was regenerated with 60 μl of regeneration solution provided with anti-human IgG Fc capture kit (BIACORE™, GE […]®, catalog no. BR100839) or BiotinCAPture kit (BIACORE™, GE […]®, catalog no. 28920234) respectively. Experimental data were processed using the 1:1 Langmuir kinetic fitting model. Measurements included zero-concentration samples for referencing. Chi², U- and residual values were used to evaluate the quality of a fit between the experimental data and individual binding models. […]

B4: Anti-IL-1RAP-C8-H1A-C4-Fab (Fab, V domains shown)
VH: QVQLVQSGAEVKKPGSSVKVSCKASGGKLNAYAIQWVRQAPGQGLEWMGYIIPLHGQVDYAQKFQGRVTITADESTSTAYMELSSLRSEDTAVYYCARGQTLYDSGRQFDIWGQGTLVTVSS
VL: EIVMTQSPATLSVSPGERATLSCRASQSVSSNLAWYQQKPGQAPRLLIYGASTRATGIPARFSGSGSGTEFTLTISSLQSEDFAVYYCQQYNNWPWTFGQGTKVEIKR
Kd [4]: 0.995 nM

B8: Anti-IL-1RAP-C8-H1A-G3-Fab (Fab, V domains shown)
VH: QVQLVQSGAEVKKPGSSVKVSCKASGGPFSDYAIQWVRQAPGQGLEWMGYIIPLHGQVDYAQKFQGRVTITADESTSTAYMELSSLRSEDTAVYYCARGQTLYDSGRQFDIWGQGTLVTVSS
VL: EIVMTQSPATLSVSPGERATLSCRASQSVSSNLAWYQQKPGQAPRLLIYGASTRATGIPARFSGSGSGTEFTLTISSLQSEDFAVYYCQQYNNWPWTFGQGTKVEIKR
Kd [4]: 0.623 nM

B9: Anti-IL-1RAP-C8-H1B-A8-Fab (Fab, V domains shown)
VH: QVQLVQSGAEVKKPGSSVKVSCKASGEGSYPYAIQWVRQAPGQGLEWMGYIIPLHGQVDYAQKFQGRVTITADESTSTAYMELSSLRSEDTAVYYCARGQTLYDSGRQFDIWGQGTLVTVSS
VL: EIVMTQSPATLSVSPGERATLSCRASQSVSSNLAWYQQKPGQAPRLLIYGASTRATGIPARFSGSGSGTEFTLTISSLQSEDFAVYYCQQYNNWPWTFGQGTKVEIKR
Kd [4]: 0.522 nM

B11: Anti-IL-1RAP-C8-H1A-D8-Fab (Fab, V domains shown)
VH: QVQLVQSGAEVKKPGSSVKVSCKASGGHFNNYAIQWVRQAPGQGLEWMGYIIPLHGQVDYAQKFQGRVTITADESTSTAYMELSSLRSEDTAVYYCARGQTLYDSGRQFDIWGQGTLVTVSS
VL: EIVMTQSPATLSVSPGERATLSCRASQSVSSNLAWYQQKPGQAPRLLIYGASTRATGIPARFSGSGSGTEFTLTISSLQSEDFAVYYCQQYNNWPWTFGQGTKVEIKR
Kd [4]: 1.51 nM

B12: Anti-IL-1RAP-C8-H1A-F1-Fab (Fab, V domains shown)
VH: QVQLVQSGAEVKKPGSSVKVSCKASGGIFSNYAIQWVRQAPGQGLEWMGYIIPLHGQVDYAQKFQGRVTITADESTSTAYMELSSLRSEDTAVYYCARGQTLYDSGRQFDIWGQGTLVTVSS
VL: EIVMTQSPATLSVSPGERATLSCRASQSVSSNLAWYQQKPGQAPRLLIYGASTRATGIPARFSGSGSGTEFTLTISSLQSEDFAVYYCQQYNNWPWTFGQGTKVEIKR
Kd [4]: 0.832 nM

B14: Anti-IL-1RAP-C8-H1A-G1-Fab (Fab, V domains shown)
VH: QVQLVQSGAEVKKPGSSVKVSCKASGGASRAYAIHWVRQAPGQGLEWMGYIIPLHGQVDYAQKFQGRVTITADESTSTAYMELSSLRSEDTAVYYCARGQTLYDSGRQFDIWGQGTLVTVSS
VL: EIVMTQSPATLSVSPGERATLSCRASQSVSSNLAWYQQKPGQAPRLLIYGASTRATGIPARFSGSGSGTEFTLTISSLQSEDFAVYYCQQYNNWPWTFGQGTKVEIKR
Kd [4]: 0.424 nM

B15: Anti-IL-1RAP-C8-H1B-B8-Fab (Fab, V domains shown)
VH: QVQLVQSGAEVKKPGSSVKVSCKASGSPAEPYAIQWVRQAPGQGLEWMGYIIPLHGQVDYAQKFQGRVTITADESTSTAYMELSSLRSEDTAVYYCARGQTLYDSGRQFDIWGQGTLVTVSS
VL: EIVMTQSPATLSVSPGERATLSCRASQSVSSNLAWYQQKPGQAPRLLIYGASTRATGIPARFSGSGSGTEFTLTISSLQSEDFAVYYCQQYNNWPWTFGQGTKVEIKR
notes: also called ISB 880-C8-H1B-B8
Kd [4]: 0.373 nM

B16: Anti-IL-1RAP-C8-H1A-C8-Fab (Fab, V domains shown)
VH: QVQLVQSGAEVKKPGSSVKVSCKASGGLFSDYAIQWVRQAPGQGLEWMGYIIPLHGQVDYAQKFQGRVTITADESTSTAYMELSSLRSEDTAVYYCARGQTLYDSGRQFDIWGQGTLVTVSS
VL: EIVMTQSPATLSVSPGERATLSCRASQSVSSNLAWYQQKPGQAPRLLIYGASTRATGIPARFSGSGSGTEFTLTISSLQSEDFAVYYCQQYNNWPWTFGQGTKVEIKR
Kd [4]: 1.24 nM

B17: Anti-IL-1RAP-C8-H1A-G11-Fab (Fab, V domains shown)
VH: QVQLVQSGAEVKKPGSSVKVSCKASGGRFHQYAIQWVRQAPGQGLEWMGYIIPLHGQVDYAQKFQGRVTITADESTSTAYMELSSLRSEDTAVYYCARGQTLYDSGRQFDIWGQGTLVTVSS
VL: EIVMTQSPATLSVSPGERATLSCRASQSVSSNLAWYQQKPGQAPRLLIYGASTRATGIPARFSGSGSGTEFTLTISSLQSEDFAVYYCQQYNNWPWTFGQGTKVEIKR
Kd [4]: 0.742 nM

More lines, now with the values ahead:

binding result [1]: no binding (tested: 7.8 to 500 nM Fab)
Kd [2]: 78.7 nM
Kd [3]: 98.1 nM
B1: Anti-IL-1RAP-UCP02-B11-Fab (Fab, V domains shown)
VH: QVQLVQSGAEVKKPGSSVKVSCKASGGHFSQFAISWVRQAPGQGLEWMGGIAPGLGSTRYAQKFQGRVTITADESTSTAYMELSSLRSEDTAVYYCARDSIYSAWLAYWGQGTLVTVSS
VL: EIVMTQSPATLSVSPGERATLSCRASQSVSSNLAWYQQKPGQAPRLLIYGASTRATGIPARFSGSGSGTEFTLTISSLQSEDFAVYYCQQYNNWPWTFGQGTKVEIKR

binding result [1]: no binding (tested: 7.8 to 500 nM Fab)
Kd [2]: 378 nM
Kd [3]: 420 nM
B2: Anti-IL-1RAP-UCP03-G4-Fab (Fab, V domains shown)
VH: QVQLVQSGAEVKKPGSSVKVSCKASGGRFSHYVFSWVRQAPGQGLEWMGGIIPYEGKPFYAQKFQGRVTITADESTSTAYMELSSLRSEDTAVYYCARSDYFYYYFDPWGQGTLVTVSS
VL: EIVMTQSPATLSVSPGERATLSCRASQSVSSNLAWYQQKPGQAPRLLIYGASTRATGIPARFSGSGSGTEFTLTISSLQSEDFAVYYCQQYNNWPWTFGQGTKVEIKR

binding result [1]: no binding (tested: 7.8 to 500 nM Fab)
Kd [2]: 464 nM
Kd [3]: 279 nM
B3: Anti-IL-1RAP-UCP03-G3-Fab (Fab, V domains shown)
VH: QVQLVQSGAEVKKPGSSVKVSCKASGGPLSGYAFHWVRQAPGQGLEWMGGIIPNFAQTDYAQKFQGRVTITADESTSTAYMELSSLRSEDTAVYYCARFSIYSGWSDVWGQGTLVTVSS
VL: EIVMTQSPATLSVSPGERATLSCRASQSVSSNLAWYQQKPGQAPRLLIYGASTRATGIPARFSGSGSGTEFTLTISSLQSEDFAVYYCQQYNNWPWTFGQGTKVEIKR

Kd [4]: 0.831 nM
B5: Anti-IL-1RAP-C8-H1B-E7-Fab (Fab, V domains shown)
VH: QVQLVQSGAEVKKPGSSVKVSCKASGSKHGNYAIQWVRQAPGQGLEWMGYIIPLHGQVDYAQKFQGRVTITADESTSTAYMELSSLRSEDTAVYYCARGQTLYDSGRQFDIWGQGTLVTVSS
VL: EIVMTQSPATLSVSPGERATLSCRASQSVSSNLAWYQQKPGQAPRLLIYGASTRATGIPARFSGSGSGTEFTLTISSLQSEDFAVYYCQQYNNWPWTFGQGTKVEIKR

Kd [4]: 0.427 nM
B6: Anti-IL-1RAP-C8-H1B-F3-Fab (Fab, V domains shown)
VH: QVQLVQSGAEVKKPGSSVKVSCKASGGPHTAHAIQWVRQAPGQGLEWMGYIIPLHGQVDYAQKFQGRVTITADESTSTAYMELSSLRSEDTAVYYCARGQTLYDSGRQFDIWGQGTLVTVSS
VL: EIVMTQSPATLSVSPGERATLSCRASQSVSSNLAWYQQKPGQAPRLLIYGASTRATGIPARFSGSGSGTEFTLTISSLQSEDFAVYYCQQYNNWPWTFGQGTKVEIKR

Kd [4]: 0.476 nM
B7: Anti-IL-1RAP-C8-H1B-D8-Fab (Fab, V domains shown)
VH: QVQLVQSGAEVKKPGSSVKVSCKASGPSNPVYAIQWVRQAPGQGLEWMGYIIPLHGQVDYAQKFQGRVTITADESTSTAYMELSSLRSEDTAVYYCARGQTLYDSGRQFDIWGQGTLVTVSS
VL: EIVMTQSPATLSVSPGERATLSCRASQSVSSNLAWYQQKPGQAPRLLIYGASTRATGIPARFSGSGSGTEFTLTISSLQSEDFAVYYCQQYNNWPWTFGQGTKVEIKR

Kd [4]: 0.553 nM
B10: Anti-IL-1RAP-C8-H1B-B10-Fab (Fab, V domains shown)
VH: QVQLVQSGAEVKKPGSSVKVSCKASGVTHTSYAIQWVRQAPGQGLEWMGYIIPLHGQVDYAQKFQGRVTITADESTSTAYMELSSLRSEDTAVYYCARGQTLYDSGRQFDIWGQGTLVTVSS
VL: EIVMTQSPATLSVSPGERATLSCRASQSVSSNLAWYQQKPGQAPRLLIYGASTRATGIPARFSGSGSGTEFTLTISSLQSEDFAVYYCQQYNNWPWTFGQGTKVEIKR

Kd [4]: 0.313 nM
B13: Anti-IL-1RAP-C8-H1B-G10-Fab (Fab, V domains shown)
VH: QVQLVQSGAEVKKPGSSVKVSCKASGGPRRAYAIQWVRQAPGQGLEWMGYIIPLHGQVDYAQKFQGRVTITADESTSTAYMELSSLRSEDTAVYYCARGQTLYDSGRQFDIWGQGTLVTVSS
VL: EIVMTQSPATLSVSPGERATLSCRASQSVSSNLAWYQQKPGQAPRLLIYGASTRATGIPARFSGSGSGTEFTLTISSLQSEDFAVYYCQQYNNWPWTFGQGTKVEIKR

binding result [1]: no binding (tested: 7.8 to 500 nM Fab)
Kd [2]: 486 nM
Kd [3]: 700 nM
B18: Anti-IL-1RAP-UCP03-C2-Fab (Fab, V domains shown)
VH: QVQLVQSGAEVKKPGSSVKVSCKASGDPFKRYAIGWVRQAPGQGLEWMGGIIPTTGEAIYAQKFQGRVTITADESTSTAYMELSSLRSEDTAVYYCARHGTTYAAFDHWGQGTLVTVSS
VL: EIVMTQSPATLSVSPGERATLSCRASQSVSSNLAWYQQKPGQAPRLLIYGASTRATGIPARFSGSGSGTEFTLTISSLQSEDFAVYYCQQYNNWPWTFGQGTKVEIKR
